In FireProtDB:

B1: Lysozyme C, P61626 (parent)
chain: MKALIVLGLVLLSVTVQGKVFERCELARTLKRLGMDGYRGISLANWMCLAKWESGYNTRATNYNAGDRSTDYGIFQINSRYWCNDGKTPGAVNACHLSCSALLQDNIADAVACAKRVVRDPQGIRAWVAWRNRCQNRDVRQYVQGCGV
B2: Amicyanin, P22364 (parent)
chain: MISATKIRSCLAACVLAAFGATGALADKATIPSESPFAAAEVADGAIVVDIAKMKYETPELHVKVGDTVTWINREAMPHNVHFVAGVLGEAALKGPMMKKEQAYSLTFTEAGTYDYHCTPHPFMRGKVVVE
B3: Holocytochrome-c synthase, P06182 (parent)
chain: MGWFWADQKTTGKDIGGAAVSSMSGCPVMHESSSSSPPSSECPVMQGDNDRINPLNNMPELAASKQPGQKMDLPVDRTISSIPKSPDSNEFWEYPSPQQMYNAMVRKGKIGGSGEVAEDAVESMVQVHNFLNEGCWQEVLEWEKPHTDESHVQPKLLKFMGKPGVLSPRARWMHLCGLLFPSHFSQELPFDRHDWIVLRGERKAEQQPPTFKEVRYVLDFYGGPDDENGMPTFHVDVRPALDSLDNAKDRMTRFLDRMISGPSSSSSAP
B4: Ribose import binding protein RbsB, P02925 (parent)
chain: MNMKKLATLVSAVALSATVSANAMAKDTIALVVSTLNNPFFVSLKDGAQKEADKLGYNLVVLDSQNNPAKELANVQDLTVRGTKILLINPTDSDAVGNAVKMANQANIPVITLDRQATKGEVVSHIASDNVLGGKIAGDYIAKKAGEGAKVIELQGIAGTSAARERGEGFQQAVAAHKFNVLASQPADFDRIKGLNVMQNLLTAHPDVQAVFAQNDEMALGALRALQTAGKSDVMVVGFDGTPDGEKAVNDGKLAATIAQLPDQIGAKGVETADKVLKGEKVQAKYPVDLKLVVKQ
B5: Pseudoazurin, P80401 (parent)
chain: MFHHSLAAAAAALLALAAPGFAATHEVHMLNKGESGAMVFEPAFVRAEPGDVINFVPTDKSHNVEAIKEILPEGVESFKSKINESYTLTVTEPGLYGVKCTPHFGMGMVGLVQVGDAPENLDAAKTAKMPKKARERMDAELAQVN
B6: Phosphoglycerate kinase, P00560 (parent)
chain: MSLSSKLSVQDLDLKDKRVFIRVDFNVPLDGKKITSNQRIVAALPTIKYVLEHHPRYVVLASHLGRPNGERNEKYSLAPVAKELQSLLGKDVTFLNDCVGPEVEAAVKASAPGSVILLENLRYHIEEEGSRKVDGQKVKASKEDVQKFRHELSSLADVYINDAFGTAHRAHSSMVGFDLPQRAAGFLLEKELKYFGKALENPTRPFLAILGGAKVADKIQLIDNLLDKVDSIIIGGGMAFTFKKVLENTEIGDSIFDKAGAEIVPKLMEKAKAKGVEVVLPVDFIIADAFSADANTKTVTDKEGIPAGWQGLDNGPESRKLFAATVAKAKTIVWNGPPGVFEFEKFAAGTKALLDEVVKSSAAGNTVIIGGGDTATVAKKYGVTDKISHVSTGGGASLELLEGKELPGVAFLSEKK

Variants of: B1
Conditions: Homo sapiens; pH 4; 10 °C; GdnHCl; CD; GdnHCl 40 mM; reversible: yes; structure 1LZ1; whole UniProt chain shown

| Variant | ddG of mutation (higher = less stable) [kcal/mol] | denaturant m value [kcal/mol/M] | denaturant midpoint (higher = more stable) [M] | unfolding free energy [kcal/mol] |
| --- | --- | --- | --- | --- |
| I74T | 6.67 | 2.96 | 2.7 | 7.31 |
| D85H | 4.54 | 3.2 | 3.1 | 9.44 |

Same assay, conditions: Homo sapiens; pH 5.2; 20 °C; GdnHCl; CD; Sodium acetate 20 mM; reversible: yes; structure 1LZ1; whole UniProt chain shown

| Variant | ddG of mutation (higher = less stable) [kcal/mol] | denaturant m value [kcal/mol/M] | denaturant midpoint (higher = more stable) [M] | unfolding free energy [kcal/mol] |
| --- | --- | --- | --- | --- |
| W82C C83A | 2.2 | 3.3 | 3.79 | 12.5 |

Variants of: B2
Conditions: Paracoccus denitrificans; pH 7.5; Thermal; absorbance; Potassium Phosphate Buffer 10 mM; structure 2OV0; whole UniProt chain shown

| Variant | Tm [°C] |
| --- | --- |
| W71Y | 53.9 |

Variants of: B3
Conditions: Saccharomyces cerevisiae (strain ATCC 204508 / S288c); pH 6; Thermal; Absorbance; Sodium phosphate 100 mM; reversible: yes; whole UniProt chain shown

| Variant | Tm [°C] | change of melting temperature, mutant - wild type (higher = more stable) [°C] | heat capacity change of unfolding [kcal/mol/K] | unfolding enthalpy (van 't Hoff) [kcal/mol] |
| --- | --- | --- | --- | --- |
| N57I | 63.7 | 17.2 | 2 | 109 |

Variants of: B4
Conditions: Escherichia coli (strain K12); pH 7.7; 25 °C; GdnHCl; Fluorescence; HEPES 10 mM; reversible: yes; structure 2DRI; whole UniProt chain shown

| Variant | unfolding free energy [kcal/mol] |
| --- | --- |
| A52T | 1.8 |

Variants of: B5
Conditions: Paracoccus pantotrophus; pH 7; 25 °C; Urea; CD; Sodium phosphate 20 mM; Na2SO4 0.5 M; reversible: yes; structure 1ADW; whole UniProt chain shown

| Variant | denaturant m value [kcal/mol/M] |
| --- | --- |
| Y96W | 1.19 |

Variants of: B6
Conditions: Saccharomyces cerevisiae (strain ATCC 204508 / S288c); pH 6.2; 20 °C; GdnHCl; CD; potassium phosphate 50 mM; structure 3PGK; whole UniProt chain shown

| Variant | denaturant m value [kcal/mol/M] | unfolding free energy [kcal/mol] |
| --- | --- | --- |
| W309F | 18 | 10.3 |
| W309F W334F Y123W | 14 | 5.71 |

Same assay, conditions: Saccharomyces cerevisiae (strain ATCC 204508 / S288c); pH 6.2; 20 °C; Thermal; CD; potassium phosphate 20 mM; structure 3PGK; whole UniProt chain shown

| Variant | unfolding free energy [kcal/mol] |
| --- | --- |
| W309F | 5.43 |
| W309F W334F Y123W | 5.23 |
| W334F | 5.16 |

Same assay, conditions: Saccharomyces cerevisiae (strain ATCC 204508 / S288c); pH 7.5; 22 °C; GdnHCl; CD; Tris 20 mM; structure 3PGK; whole UniProt chain shown

| Variant | ddG of mutation (higher = less stable) [kcal/mol] | denaturant midpoint (higher = more stable) [M] | unfolding free energy [kcal/mol] |
| --- | --- | --- | --- |
| W334F | -2.2 | 0.64 | 10 |
| W309Y | 3.6 | 0.55 | 4.2 |

Same assay, conditions: Saccharomyces cerevisiae (strain ATCC 204508 / S288c); pH 6.5; 25 °C; GdnHCl; CD; Sodium phosphate 20 mM; reversible: yes; structure 3PGK; whole UniProt chain shown

| Variant | ddG of mutation (higher = less stable) [kcal/mol] | denaturant m value [kcal/mol/M] | unfolding free energy [kcal/mol] |
| --- | --- | --- | --- |
| H389Q | 0.84 | 6.08 | 2.99 |
